For test [1], the system named is TGFβ1 signaling pathway in VSMC cells (aortic smooth muscle cells). In words: VSMC cells treated with AGGF1 protein: Western blot, ELISA, RT-PCR of TGFβ1 signaling. In kind it is cell-based. As for the experimental part: FIG. 8 depicts that AGGF1 inhibits TGF-β1 and ERK1/2 signaling pathways and a TGF-β1-induced VSMC inflammation. […] Subsequently, cell lysates are collected for the western blot analysis of p-ERK1/2, T-ERK1/2, and p-Smad3. The GAPDH serves as a loading control. […] After 48 hours, the cell lysates are collected for the western blot analysis of p-ERK1/2, T-ERK1/2, and p-Smad3. […] The GAPDH serves as a loading control. […] Subsequently, mRNA is extracted using a Trizol method and reverse transcribed to obtain cDNA for a real-time RT-PCR detection of Il-6, Mcp1, Mmp2, and Mmp9 mRNA levels. […] Subsequently, mRNA is extracted using the Trizol method and reverse transcribed to obtain cDNA. The real-time RT-PCR is performed to analyze the mRNA levels of Il-6, Mcp1, Mmp2, and Mmp9. *, P<0.05; **, P<0.01; ***, P<0.001; n=3/group.
(§1) The β-actin serves as a loading control. […] The GAPDH serves as a loading control. […] The mRNA is extracted using the Trizol method and reverse transcribed to obtain cDNA. […] Cells are transfected with different plasmids of LAP-TGF-β1-FLAG and the integrin α7-FLAG, and treated with the purified AGGF1 or AGGF1-RDDdel for 24 hours, with grouping as shown in FIG. K. *, P<0.05; **, P<0.01; ***, P<0.001; n≥3/group.
(§2) In vitro experiments were performed using aortic smooth muscle cells and HEK293T cells. As shown in A-C of FIG. 8 and A-F of FIG. 9, whether with recombinant AGGF1 protein, AGGF1-FLAG overexpression, or AGGF1 silencing, Western blot analysis and ELISA experimental results verified that AGGF1 inhibits the TGFβ1 signaling pathway (Smad3 and ERK1/2) and the level of the mature TGFβ1. […] In the Western blot analysis of FIG. 10, it was verified that LAP-TGFβ1 interacts with integrin α7 through the RGD sequence, which is also the molecular mechanism by which integrin α7 inhibits TGFβ1.

Test [2] deals with mature TGFβ1 in HEK293T cells. Briefly: ELISA of TGF-β1 levels in culture medium of HEK293T cells transfected with LAP-TGF-β1-FLAG and integrin α7-FLAG. Type of test: cell-based. The settings on record: purified protein 24 hours. As for the experimental part:
as §1, §2

Test [3] has as its system aortic aneurysm induced by Fbn1^C1041G/+ mutation. Briefly: AGGF1 treatment of spontaneous aortic aneurysm in Fbn1 C1041G/+ mutant mice. Type of test: in vivo. The source says: FIG. 13 depicts an AGGF1 treatment for a spontaneous aortic aneurysm in FbnC1041G/+ mutant mice. […] The bar graph on the right illustrates the luminal diameter of the ascending aortic. […] The GAPDH serves as a loading control. […] The bar graphs on the right indicate the percentage of the positive area for the respective immunostaining quantification. *, P<0.05; **, P<0.01; ***, P<0.001; n=8/group for mouse studies, other sample sizes n=4/group.
The present disclosure obtained the previously published Fbn1^C1041G/+ mutant mice from Tongji Hospital. Compared with the wild-type mice, we detected spontaneous aortic expansion in these mice at week 10, resulting in the aortic aneurysm. After obtaining these mice, at week 10, mice were intraperitoneally injected with Buffer or AGGF1 protein, and the injection continued until week 18. At week 18, mice underwent ultrasound examination, then were euthanized and their aortas were collected for Western Blotting experiments and histochemical staining.

Test [4] concerns TAC-induced mouse aneurysm model. In words: TAC (transverse aortic constriction)-induced aneurysm model, i.p. recombinant AGGF1 or AGGF1-RDDdel protein. Type of test: in vivo, C57BL/6 mice. The settings on record: 0.5 mg/kg i.p., day 21.
Test [5] deals with T1, integrin α7 / LAP-TGF-β1 interaction (Homo sapiens, UniProt Q13683).
T1 construct: FLAG; GFP; expressed in transfected cells; host or cells: HEK293T
T1 sequence (Q13683 34-1181): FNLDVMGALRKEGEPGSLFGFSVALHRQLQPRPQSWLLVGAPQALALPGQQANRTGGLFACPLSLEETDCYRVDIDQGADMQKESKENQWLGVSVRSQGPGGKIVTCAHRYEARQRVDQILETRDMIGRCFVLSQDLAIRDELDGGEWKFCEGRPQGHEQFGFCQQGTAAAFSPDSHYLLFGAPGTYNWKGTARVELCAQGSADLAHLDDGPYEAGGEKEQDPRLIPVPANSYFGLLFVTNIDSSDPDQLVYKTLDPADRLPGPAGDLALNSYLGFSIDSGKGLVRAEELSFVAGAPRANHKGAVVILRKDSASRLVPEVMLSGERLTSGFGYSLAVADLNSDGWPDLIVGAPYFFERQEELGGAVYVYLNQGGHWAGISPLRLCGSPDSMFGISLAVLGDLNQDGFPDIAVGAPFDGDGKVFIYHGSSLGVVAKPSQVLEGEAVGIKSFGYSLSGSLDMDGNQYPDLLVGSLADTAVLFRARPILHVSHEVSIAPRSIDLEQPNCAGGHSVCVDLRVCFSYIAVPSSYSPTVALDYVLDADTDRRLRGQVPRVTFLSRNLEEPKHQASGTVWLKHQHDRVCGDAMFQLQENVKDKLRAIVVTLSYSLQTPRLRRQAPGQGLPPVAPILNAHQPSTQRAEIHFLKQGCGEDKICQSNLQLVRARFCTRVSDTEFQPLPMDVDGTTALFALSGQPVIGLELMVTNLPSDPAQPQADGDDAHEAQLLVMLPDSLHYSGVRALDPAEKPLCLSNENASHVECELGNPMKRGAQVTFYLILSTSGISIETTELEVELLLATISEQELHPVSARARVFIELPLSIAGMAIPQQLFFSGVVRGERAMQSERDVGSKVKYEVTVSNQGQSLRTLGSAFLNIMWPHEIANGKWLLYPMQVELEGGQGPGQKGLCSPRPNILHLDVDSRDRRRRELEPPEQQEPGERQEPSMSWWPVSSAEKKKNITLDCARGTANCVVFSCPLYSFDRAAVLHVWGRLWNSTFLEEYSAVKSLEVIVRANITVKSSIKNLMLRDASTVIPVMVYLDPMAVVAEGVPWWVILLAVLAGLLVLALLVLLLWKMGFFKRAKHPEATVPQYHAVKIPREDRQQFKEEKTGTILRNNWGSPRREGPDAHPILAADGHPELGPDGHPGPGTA
T1 sequence (P05556 21-798 partner): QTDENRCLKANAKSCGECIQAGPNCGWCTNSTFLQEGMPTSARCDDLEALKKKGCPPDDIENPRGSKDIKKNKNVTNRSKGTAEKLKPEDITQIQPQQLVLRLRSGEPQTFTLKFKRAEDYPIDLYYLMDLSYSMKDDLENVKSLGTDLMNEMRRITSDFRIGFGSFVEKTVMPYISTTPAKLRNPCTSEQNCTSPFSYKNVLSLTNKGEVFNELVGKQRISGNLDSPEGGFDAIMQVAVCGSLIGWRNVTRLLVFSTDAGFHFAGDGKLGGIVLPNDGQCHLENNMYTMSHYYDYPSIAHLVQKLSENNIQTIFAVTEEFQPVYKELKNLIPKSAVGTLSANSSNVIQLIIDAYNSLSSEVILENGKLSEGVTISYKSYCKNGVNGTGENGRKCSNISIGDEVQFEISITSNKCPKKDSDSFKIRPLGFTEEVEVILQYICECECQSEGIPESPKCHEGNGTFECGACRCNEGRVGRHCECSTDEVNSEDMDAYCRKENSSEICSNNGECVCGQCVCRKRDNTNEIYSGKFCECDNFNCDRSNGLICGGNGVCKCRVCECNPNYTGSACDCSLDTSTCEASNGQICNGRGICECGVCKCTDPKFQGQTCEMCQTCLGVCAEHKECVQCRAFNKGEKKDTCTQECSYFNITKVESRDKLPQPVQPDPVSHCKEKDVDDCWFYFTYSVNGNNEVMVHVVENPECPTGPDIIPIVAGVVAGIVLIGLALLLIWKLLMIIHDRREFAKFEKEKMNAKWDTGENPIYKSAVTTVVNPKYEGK
Briefly: Co-IP of LAP-TGF-β1-GFP and integrin α7-FLAG in HEK293T cells. Particulars: AGGF1 overexpression or stimulation for 24 hours. Type of test: cell-based. The source says:
FIG. 10 illustrates that the integrin α7 interacts with LAP-TGF-β1 via an RGD sequence, and AGGF1 enhances this interaction. […] Quantitative data of a LAP-TGF-β1-GFP/α7-FLAG ratio are plotted as bar graphs on the right. […] Quantitative data of the LAP-TGF-β1-GFP/α7-FLAG ratio are plotted as bar graphs on the right. *, P<0.05; **, P<0.01; ***, P<0.001; n=3/group.

B1: AGGF1 protein: recombinant human AGGF1 protein with His tag, SEQ ID NO:1, expressed from pet28-AGGF1 in Escherichia coli BL21 (DE3) (protein, listed as Homo sapiens)
chain: MASEAPSPPRSPPPPTSPEPELAQLRRKVEKLERELRSCKRQVREIEKLLHHTERLYQNAESNNQELRTQVEELSKILQRGRNEDNKKSDVEVQTENHAPWSISDYFYQTYYNDVSLPNKVTELSDQQDQAIETSILNSKDHLQVENDAYPGTDRTENVKYRQVDHFASNSQEPASALATEDTSLEGSSLAESLRAAAEAAVSQTGFSYDENTGLYFDHSTGFYYDSENQLYYDPSTGIYYYCDVESGRYQFHSRVDLQPYPTSSTKQSKDKKLKKKRKDPDSSATNEEKDLNSEDQKAFSVEHTSCNEEENFANMKKKAKIGIHHKNSPPKVTVPTSGNTIESPLHENISNSTSFKDEKIMETDSEPEEGEITDSQTEDSYDEAITSEGNVTAEDSEDEDEDKIWPPCIRVIVIRSPVLQIGSLFIITAVNPATIGREKDMEHTLRIPEVGVSKFHAEIYFDHDLQSYVLVDQGSQNGTIVNGKQILQPKTKCDPYVLEHGDEVKIGETVLSFHIHPGSDTCDGCEPGQVRAHLRLDKKDESFVGPTLSKEEKELERRKELKKIRVKYGLQNTEYEDEKTLKNPKYKDRAGKRREQVGSEGTFQRDDAPASVHSEITDSNKGRKMLEKMGWKKGEGLGKDGGGMKTPIQLQLRRTHAGLGTGKPSSFEDVHLLQNKNKKNWDKARERFTENFPETKPQKDDPGTMPWVKGTLE
modifications: His tag
As to B1, the “TGFβ1-induced inflammation (Il6, Mcp1, Mmp2, Mmp9)” value in test [1] (RT-PCR, TGF-β1 24 hours then AGGF1 24 hours) is “inhibit”. Besides, the “level of the mature TGFβ1” value in test [1] (Western blot and ELISA, protein treatment 48 hours) is “inhibits”. Further, in test [1] (Western blot, TGF-β1 15 minutes then AGGF1 10 minutes), the “TGFβ1 signaling pathway (Smad3 and ERK1/2)” value is “inhibits”. Besides, the “inhibition of mature TGFβ1 by integrin α7” value in test [2] is “enhance”. For the same molecule, in test [3] (i.p. from week 10 to week 18, ultrasound at week 18), the “expansion of the ascending aorta” value is reported as “significantly inhibit”. Also, in test [3] (week 18), the “increase in αSMA/CD68/MCP1 levels (immunostaining positive areas)” value is listed as “significantly inhibit”; the “level of mature TGFβ1 (Western blot, ascending aorta)” value is on record as “inhibited”; the “p-ERK (Western blot, ascending aorta)” value is listed as “inhibited”; the “p-Smad2 (Western blot, ascending aorta)” value was “inhibited”. Also, in test [3] (week 18), the “p-Smad3 (Western blot, ascending aorta)” value is given as “inhibited” and the “thickening of the vascular media” value is on record as “significantly inhibit”. In test [4], the “level of the mature TGFβ1 (Western blot, ascending aorta, FIG. 7)” value is “inhibit”; the “p-ERK1/2 (Western blot, ascending aorta, FIG. 7)” value is on record as “inhibit”; the “p-Smad3 (Western blot, ascending aorta, FIG. 7)” value was “inhibit”. The “interaction of integrin α7 with LAP-TGF-β1 (LAP-TGF-β1-GFP/α7-FLAG ratio)” value in test [5] is listed as “enhances”.

For the origin of these results see patent publication US20260209294A1, “USE OF RECOMBINANT PROTEIN IN PREPARING DRUG FOR INHIBITING ANEURYSM” (HUAZHONG UNIVERSITY OF SCIENCE AND TECHNOLOGY, priority 2022, published 2026).
